According to the nanobody polyreactivity screen of Harvey et al. (2022):

test: yeast display, Sf9 membrane polyspecificity reagent, FACS + sequencing; frameworks hold sequencing errors
How it was run: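 In a synthetic yeast display library (Saccharomyces cerevisiae BJ5465), nanobody expression was induced with galactose for 36–48 hours. FACS gates were set low and high (top ~1%) using anti-HA fluorescence for expression and streptavidin fluorescence for binding of the Sf9 membrane reagent. Each polyreactivity label is drawn from the gate of origin.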

Row | Sequence | polyreactivity (PSR sort gate)
1 | QVQLVESGGGLVQAGGSLRLSCAASGSIFLVYAMGWYRQAPGKERELVAAIRISDSTNYADSVKGRFTISRDNAKNTVYLQMNSLKPEDTAVYYCNVDTVGLGGEKGGYYWGQGTQVTVSS | low polyreactivity
2 | QVQLVESGGGLVQAGGSLRLSCAASGSIFLWNAMGWYRQAPGKEREFVASITSRGGSTYYADSVKGRFTISRDNAKNTVYLQMNSLKPEDTAVYYCAAVRSKYLYYQGGYSSYGYWGQGTQVTVSS | high polyreactivity
3 | QVQLVESGGGLVQAGGSLRLSCAASGSIFLYNAMGWYRQAPGKERELVAAISAIGSNTYYADSVKGRFTISRDNAKNTVYLQMNSLKPEDTAVYYCAAESVNVVNFGTRVGYWGQGTQVTVSS | high polyreactivity
4 | QVQLVESGGGLVQAGGSLRLSCAASGSIFLYNAMGWYRQAPGKERELVAAISSSSDRTYYADSVKGRFTISRDNAKNTVYLQMNSLKPEDTAVYYCNVVYIGWRKYEYWGQGTQVTVSS | high polyreactivity
5 | QVQLVESGGGLVQAGGSLRLSCAASGSIFLYNAMGWYRQAPGKESEFDAAISWSGVSTYYADSVKGRFTISRDNAKNTVYLHMNSLKPEDTAVYYCNAVYARVPIYDYWGQGTQVTVSS | low polyreactivity
6 | QVQLVESGGGLVQAGGSLRLSCAASGSIFLYNAMRWYRQAPGKERELVAAKSYSGASTYYADSVKGRFTISRDNAKNTVYLQMNSLKAEDTAVYYCAKTFRYKWPYGTPKYDYWGQGTQVTVSS | high polyreactivity
7 | QVQLVESGGGLVQAGGSLRLSCAASGSIFLYYAMGWYIQAPGKERELVAGIRRGGRTNYADSVKGRFTISRDNAKNTVYLQMNSLKPEDTAVYYCAKGGYWGHGTQVTVSS | high polyreactivity
8 | QVQLVESGGGLVQAGGSLRLSCAASGSIFLYYAMGWYTQAPGKERELVASISSTGSTYYADSVKGRFTISRDNAKNTVYLLINSLKPEDTGVYYCAKRRWYYYPRYSLSTQMDYWGQGTQVTVSS | high polyreactivity
9 | QVQLVESGGGLVQAGGSLRLSCAASGSIFMRYSMGWYRQAPGKDRELVAAITRSGGSTYYADSVKGRFTISRDNAKNTVYLQMNSLKPEDTAVYFCAAYTFVTVGYDYWGQGTQVTVSS | high polyreactivity
10 | QVQLVESGGGLVQAGGSLRLSCAASGSIFNGNAMGWYRQAPGKERELVAAITRRGGRTYYADSVKGRFTISRDNAKNTVYLQMNSLKPEDTAVYYCNAYSKAVQGGYYYWGQGTQVTVSS | high polyreactivity
11 | QVQLVESGGGLVQAGGSLRLSCAASGSIFNGYAMGWYRQAPGKERELVAAISWSGVGTYYADSVKGRFTISRDNAKNTVYLEMNSLKPEDTAVYYCNAVATHDWLRVDTYEYWGQGTQVTVSS | low polyreactivity
12 | QVQLVESGGGLVQAGGSLRLSCAASGSIFNGYAMGWYRQAPGKERELVATITRGGGSTYYADSVKGRFTISRDNAKNTVYLQMNSLKPEDTAVYYCAKTYFYGVRRFNYWGQGTQVTVSS | high polyreactivity
13 | QVQLVESGGGLVQAGGSLRLSCAASGSIFNINAMGWCRQAPGKDRELVATITSGGTTSYADSVKGRFTISRDNAKNTVYLQMNSLKPEDTAVYYCNAEIYPIVKAGRQHPRRYDYWGQGTQVTVSS | low polyreactivity
14 | QVQLVESGGGLVQAGGSLRLSCAASGSIFNIYAMGWYRQAPGKERELVATITGIADSTYYADSVKGRFTISRDNAKNTVYLQMNSLKPEDTAVYFCAAEKYVAEYEYWGQGTQVTVSS | low polyreactivity
15 | QVQLVESGGGLVQAGGSLRLSCAASGSIFNIYAMGWYRQAPGKERELVATITGIADSTYYADSVKGRFTISRDNAKNTVYLQMNSLKPEDTAVYYCAAIYGSRYTTGQTRRDYYSWGQGTQVTVSS | low polyreactivity
16 | QVQLVESGGGLVQAGGSLRLSCAASGSIFNLYAMGWYRQAPGKERELVAAISRSGGSTYYADSVKGRFTISRDNAKNTVYLQMNSLKPEDTAVYYCAARYNWRYDIFDYWGQGTQVTVSS | high polyreactivity
17 | QVQLVESGGGLVQAGGSLRLSCAASGSIFNLYGMGWYRQAPGKERELVAGSTSSGGSTHYADSVKGRFTISRDNAKNTVYLQMNSLKPEDTAVYYCAKVWSFPSNYRAYYYWGQGTQVTVSS | high polyreactivity
18 | QVQLVESGGGLVQAGGSLRLSCAASGSIFNNYAMGWYRQAPGKEREFVAAISRSGGSTYYADSVKGRFTISRDNAKNTVYLQMNSLKPEDTAVYYCATDHGRYHGRYDYWGQGTQVTVSS | high polyreactivity
19 | QVQLVESGGGLVQAGGSLRLSCAASGSIFNPNAMGWYRQAPGKEREVVAAIDSGGTTDYADSVKGRFTISRDNAKNTVYLQINSLKPEDTAVYYCNADRTVTSSSFTDYDYWGQGTQVTVSS | high polyreactivity
20 | QVQLVESGGGLVQAGGSLRLSCAASGSIFNPYAMGWSRQAPGKEWELVAAISYDTTSTYYADSVKGRFTISRDNAKNTDYLQMNSLKPEDTAVYYCAARDQYGPGYRSESLDSWGQGTQETVSS | low polyreactivity

Row | Sequence | polyreactivity (PSR sort gate)
21 | QVQLVESGGGLVQAGGSLRLSCAASGSIFNPYAMGWYRQAPGKERELVAAISYTGGRTYYADSVKGRFTISRDNAKNTVYLQMNSLKPEDTAVYYCAAGHYVYWYRYQLGRYNYWGQGTQVTVSS | high polyreactivity
22 | QVQLVESGGGLVQAGGSLRLSCAASGSIFNQYAMGWHRQAPGKERELVAAISSSGGSTYYADSVKGRFTISRDNAKNTVYLQMNSLKPEDTAVYYCAARPSGRGYYLLGYWGQGTQVTVSS | low polyreactivity
23 | QVQLVESGGGLVQAGGSLRLSCAASGSIFNRNAMGWYRQAPGKERELVASINYSGGSTYYADSVKGRFTISRDNAKNTVYLQMNSLKPEDTAVYYCAADGKTYYRGGGPYYIYYRYDYWGQGTQVTVSS | low polyreactivity
24 | QVQLVESGGGLVQAGGSLRLSCAASGSIFNRYAIGWYRQAPGKERELFAAISSTGSTYYADSVKGRFTISRDNAKKTVYLQMNRLKPEDTAVYYCNADVLALAPYDYWGQGTQVNVSS | low polyreactivity
25 | QVQLVESGGGLVQAGGSLRLSCAASGSIFNRYAMGWYRQAPGKERELVAAIRSDGSTYYADSVKGRFTISRDNAKNTVYLQMNSLKPEDSAVYYCAAPLHRRYYEMDYWGQGSQVTVSS | low polyreactivity
26 | QVQLVESGGGLVQAGGSLRLSCAASGSIFNRYAMGWYRQAPGKERELVAAIRSGDNTNYADSVKGRFTISRDNAKNTVYLQMNSLKPEDTAVYYCAIRTYYRSRTVGWGKMDYWGQGTQVTVSS | high polyreactivity
27 | QVQLVESGGGLVQAGGSLRLSCAASGSIFNRYTMGWYRQAPGKERELVAAISKRGGSTYYADSVKGRFTISRDNAKNTVYLQMNSLKPEDPAVYYCAAAGYHSGKGGGYWGQGTQVTVSS | high polyreactivity
28 | QVQLVESGGGLVQAGGSLRLSCAASGSIFNSNAMGWYRQAPGKERELVATIRWSGGSTNYADSVKGRFTISRDNAKNTVYLQMNSLKPEDTAVYYCAVLPRGSNGMDYWGQGTQVTVSS | low polyreactivity
29 | QVQLVESGGGLVQAGGSLRLSCAASGSIFNSYDMGWYRQAPGKERELVAAIRSRVGSTYYADSVKGRFTISRDNAKNSVYLQMNSLKQEDTAVYYCIKDNAVDRLPWFQVTYDYWGQGTQVTVSS | low polyreactivity
30 | QVQLVESGGGLVQAGGSLRLSCAASGSIFNTYAMGWYRQAPGKEREFVASITYRGSNTYYADSVKGRFTISRDNAKNTVYLQMNSLKPEDTAVYDCAADSFDYRPEYDYWGQGTQVTVSS | low polyreactivity
31 | QVQLVESGGGLVQAGGSLRLSCAASGSIFNVNSMGWYRQAPGKERELVAAISSGGDTYYADSVKGRFTISRDNAKNTVYLQMNSLKPEDTAVYYCAKQSYTLYTLLYDYWGLGTQVTVSS | low polyreactivity
32 | QVQLVESGGGLVQAGGSLRLSCAASGSIFNWNAKAWYRQAPVKERELVAAITGSGTSTYYADSVKGRFTISPDYAKNTVYLQMNSLKPQDTAVYYCAVTRRSRYGYWGQGTQVTVSS | high polyreactivity
33 | QVQLVESGGGLVQAGGSLRLSCAASGSIFNWYAMGWYRQARGKERELVAAISYSGTRTYYADSVKGRFTISRDNAKNTVNLQLNSLKPEDTAVYYCNRAYYTRWYTKFDYWGQGTQVTVSS | high polyreactivity
34 | QVQLVESGGGLVQAGGSLRLSCAASGSIFNYNAMGWYRQAPGKERELVAAISWSGGSTYYADSVKGRFTISRDNAKNTVYLQMNSLKPEDTAVYYCAVATGLLYKSHGYWGQGTQVTVSS | low polyreactivity
35 | QVQLVESGGGLVQAGGSLRLSCAASGSIFNYYAMGWYRQAPGKERELVAAISSGDTTYYADSVKGRFTISRDNAKNTVYLQMNSLKPQDTAVYYCAAKPRSQVRYGYWGQGTQVTVSS | low polyreactivity
36 | QVQLVESGGGLVQAGGSLRLSCAASGSIFNYYAMGWYRQAPGKERELVAAITSSDGRTFYADSVKGRFTISRDNAKNKVYLQMNSLKPEDTAFYYCAAEWTSRYSTYEYWGQGTQVTVSS | low polyreactivity
37 | QVQLVESGGGLVQAGGSLRLSCAASGSIFNYYAMGWYRQAPGKERELVAGITTSGGSTYYADSVKGRFTISRDNAKNTVYLQMNSLKPEDTAVYYCAAYDYISSTYFLDDYWGQGTQVTVSS | low polyreactivity
38 | QVQLVESGGGLVQAGGSLRLSCAASGSIFNYYAMGWYRQAPGKERELVATITTRDGTTYYADSVKGRFTISRDNAKNTVYLQMNSLKPEDTAVYYCAKSWWPSRRTYSFYYWGQGTQVTVSS | high polyreactivity
39 | QVQLVESGGGLVQAGGSLRLSCAASGSIFNYYAMGWYRQAPGQERELVASISRGGSTNYADSVKGRFTISRDNAKNTVYLQMNSLKPEDTAVYYCNAEGWPGNVVYGYYYWGQGTQVTVSS | low polyreactivity
40 | QVQLVESGGGLVQAGGSLRLSCAASGSIFNYYGMGWYRQAPGKERELVAAISYSGGSTYYADSVKGRFTISRDNAKNTVYLQMNSLKPEDTAVYYCAKRYYPVIRYHSTYDSWGQGTQVTVSS | low polyreactivity
